According to article PMC8808741:

Assays:
thrombin (FIIa) = thrombin (FIIa) (UniProt P00734;P00734 315-363;364-622); assay: filter binding
FVIII = FVIII (UniProt P00451 20-2351); assay: filter binding
prothrombin (FII) = prothrombin (FII) (UniProt P00734 44-622); assay: filter binding
FX = FX (UniProt P00742;P00742 41-179;183-488); assay: filter binding
[1] = biological target: T1, modified FV (B-domain-truncated factor V) (human, UniProt P12259 29-838+1520-2224, R737Q;R1573Q;internal_change); assay: filter binding
FXa = FXa (UniProt P00742;P00742 41-179;235-488); assay: filter binding
Sequence of FXa (P00742 41-179, chain 1 of 2): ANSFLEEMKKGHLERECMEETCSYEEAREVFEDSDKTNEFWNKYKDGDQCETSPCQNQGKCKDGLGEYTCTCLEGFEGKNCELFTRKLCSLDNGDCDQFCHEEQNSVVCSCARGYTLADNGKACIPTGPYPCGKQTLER
Sequence of FXa (P00742 235-488, chain 2 of 2): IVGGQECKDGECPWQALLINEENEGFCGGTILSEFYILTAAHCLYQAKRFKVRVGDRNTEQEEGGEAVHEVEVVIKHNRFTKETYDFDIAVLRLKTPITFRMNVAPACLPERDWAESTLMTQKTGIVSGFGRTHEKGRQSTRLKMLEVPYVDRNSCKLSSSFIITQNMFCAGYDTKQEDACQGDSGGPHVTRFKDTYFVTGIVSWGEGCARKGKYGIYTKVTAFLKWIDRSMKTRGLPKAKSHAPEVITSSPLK

FVa (activated factor V) [2] = biological target: T2, FVa (activated factor V) (human, UniProt P12259;P12259 29-737;1574-2224); assay: filter binding
FVa heavy chain = FVa heavy chain (UniProt P12259 29-737); assay: SPR
FVa light chain = FVa light chain (UniProt P12259 1574-2224); assay: SPR
FVa (activated factor V) [3] = biological target: T2, FVa (activated factor V); assay: SPR
[4] = biological target: T1, modified FV (B-domain-truncated factor …); assay: SPR
FVa (activated factor V) [5] = biological target: T2, FVa (activated factor V); assay: filter binding; remark: listed apart in the source

Sequence of FX (P00742 41-179, chain 1 of 2): as the sequence (P00742 41-179, chain 1 of 2) above
Sequence of FX (P00742 183-488, chain 2 of 2): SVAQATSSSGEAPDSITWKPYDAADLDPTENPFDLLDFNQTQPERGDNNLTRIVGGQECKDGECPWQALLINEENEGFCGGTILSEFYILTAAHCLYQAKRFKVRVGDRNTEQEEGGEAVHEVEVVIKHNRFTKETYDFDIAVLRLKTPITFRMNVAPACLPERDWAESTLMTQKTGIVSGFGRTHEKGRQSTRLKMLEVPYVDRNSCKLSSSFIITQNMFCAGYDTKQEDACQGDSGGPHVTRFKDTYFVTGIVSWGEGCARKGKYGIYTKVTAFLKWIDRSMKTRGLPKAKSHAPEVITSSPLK
Sequence of FVIII (P00451 20-2351): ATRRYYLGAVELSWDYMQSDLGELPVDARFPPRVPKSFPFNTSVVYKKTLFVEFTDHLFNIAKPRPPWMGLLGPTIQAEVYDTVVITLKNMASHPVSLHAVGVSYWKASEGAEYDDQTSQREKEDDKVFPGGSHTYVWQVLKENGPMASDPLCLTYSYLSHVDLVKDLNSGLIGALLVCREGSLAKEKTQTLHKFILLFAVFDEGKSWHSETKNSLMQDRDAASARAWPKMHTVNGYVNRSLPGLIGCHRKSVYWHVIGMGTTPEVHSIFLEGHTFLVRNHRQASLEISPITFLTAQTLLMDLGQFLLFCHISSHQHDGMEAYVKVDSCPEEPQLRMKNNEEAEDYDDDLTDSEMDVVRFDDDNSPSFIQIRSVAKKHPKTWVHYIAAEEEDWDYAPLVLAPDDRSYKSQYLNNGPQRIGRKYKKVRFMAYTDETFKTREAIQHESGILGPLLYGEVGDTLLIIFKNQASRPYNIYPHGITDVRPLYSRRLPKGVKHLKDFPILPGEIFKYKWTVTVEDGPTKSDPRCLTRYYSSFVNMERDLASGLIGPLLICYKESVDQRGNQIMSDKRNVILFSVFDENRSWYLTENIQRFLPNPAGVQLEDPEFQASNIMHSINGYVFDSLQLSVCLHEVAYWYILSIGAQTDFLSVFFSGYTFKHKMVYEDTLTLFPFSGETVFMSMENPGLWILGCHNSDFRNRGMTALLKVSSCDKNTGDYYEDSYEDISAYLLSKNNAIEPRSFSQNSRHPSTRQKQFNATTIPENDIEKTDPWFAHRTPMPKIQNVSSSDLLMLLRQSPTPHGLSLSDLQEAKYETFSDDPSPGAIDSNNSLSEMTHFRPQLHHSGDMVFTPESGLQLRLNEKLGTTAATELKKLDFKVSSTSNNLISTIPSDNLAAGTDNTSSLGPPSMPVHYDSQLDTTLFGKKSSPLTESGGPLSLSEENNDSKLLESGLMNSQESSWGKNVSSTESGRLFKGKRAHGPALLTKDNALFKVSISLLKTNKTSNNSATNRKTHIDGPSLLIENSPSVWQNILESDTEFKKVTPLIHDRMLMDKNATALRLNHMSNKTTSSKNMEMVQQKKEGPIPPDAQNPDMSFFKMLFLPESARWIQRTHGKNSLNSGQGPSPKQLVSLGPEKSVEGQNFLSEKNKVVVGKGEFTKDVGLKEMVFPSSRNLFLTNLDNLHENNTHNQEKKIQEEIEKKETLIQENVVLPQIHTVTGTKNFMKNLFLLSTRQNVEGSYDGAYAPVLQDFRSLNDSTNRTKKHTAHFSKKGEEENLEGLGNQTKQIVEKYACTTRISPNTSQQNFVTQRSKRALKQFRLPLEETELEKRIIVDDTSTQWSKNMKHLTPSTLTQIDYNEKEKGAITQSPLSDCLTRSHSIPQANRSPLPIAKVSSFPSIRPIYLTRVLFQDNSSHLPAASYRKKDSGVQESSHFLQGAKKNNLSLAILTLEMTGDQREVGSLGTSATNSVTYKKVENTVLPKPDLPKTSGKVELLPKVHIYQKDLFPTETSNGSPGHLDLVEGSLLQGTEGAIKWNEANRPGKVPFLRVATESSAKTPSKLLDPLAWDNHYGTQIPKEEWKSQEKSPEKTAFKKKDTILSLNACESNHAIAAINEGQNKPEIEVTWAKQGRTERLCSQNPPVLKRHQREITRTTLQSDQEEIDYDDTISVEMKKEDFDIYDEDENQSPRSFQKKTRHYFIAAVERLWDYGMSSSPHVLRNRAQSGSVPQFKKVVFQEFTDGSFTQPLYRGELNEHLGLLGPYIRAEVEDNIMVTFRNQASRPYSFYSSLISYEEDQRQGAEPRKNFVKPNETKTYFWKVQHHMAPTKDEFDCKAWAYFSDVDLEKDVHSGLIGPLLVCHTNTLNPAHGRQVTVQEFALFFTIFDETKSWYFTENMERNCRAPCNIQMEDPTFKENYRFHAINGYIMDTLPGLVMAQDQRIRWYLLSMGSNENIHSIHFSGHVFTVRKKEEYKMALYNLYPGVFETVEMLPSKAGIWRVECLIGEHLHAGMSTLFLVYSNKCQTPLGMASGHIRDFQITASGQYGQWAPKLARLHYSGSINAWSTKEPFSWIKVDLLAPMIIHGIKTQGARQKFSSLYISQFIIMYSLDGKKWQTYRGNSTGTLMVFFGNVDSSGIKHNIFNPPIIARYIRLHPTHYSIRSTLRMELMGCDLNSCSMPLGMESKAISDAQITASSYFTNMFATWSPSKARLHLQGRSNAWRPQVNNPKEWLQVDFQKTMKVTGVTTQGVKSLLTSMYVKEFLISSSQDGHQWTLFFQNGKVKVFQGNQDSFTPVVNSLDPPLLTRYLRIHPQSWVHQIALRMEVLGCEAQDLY

| Binder | binding result (thrombin (FIIa)) | binding result (FVIII) | binding result (prothrombin (FII)) | binding result (FX) | Kd [1] [nM] | binding result (FXa) | Kd (FVa (activated factor V) [2]) [nM] | Kd (FVa heavy chain) [nM] | Kd (FVa light chain) [nM] | Kd (FVa (activated factor V) [3]) [nM] | Kd [4] [nM] | Kd (FVa (activated factor V) [5]) [nM] |
| --- | --- | --- | --- | --- | --- | --- | --- | --- | --- | --- | --- | --- |
| T18.3 (structured_RNA, all C and U 2'-fluoro) RNA: GGACUUGGAUAACCUCACCGCAAUGGCGGCUUGUCAGACGACUCGCUGAGGAUCCGAG | no binding | no binding | no binding | no binding | 28 | no binding | 0.99 |  |  |  |  |  |
| T18.3-Bio (structured_RNA, all C and U 2'-fluoro) RNA: GGACUUGGAUAACCUCACCGCAAUGGCGGCUUGUCAGACGACUCGCUGAGGAUCCGAG |  |  |  |  |  |  |  | 113 ± 43 | 3.33 ± 0.69 | 4.73 ± 0.69 | 11.4 ± 3 |  |
| Mut1 (structured_RNA, all C and U 2'-fluoro) RNA: GGACUUGGAUAACCUCACCGCAAUGGCGGAGGGUCAGACGACUCGCUGAGGAUCCGAG |  |  |  |  | 410 ± 46 |  |  |  |  |  |  | 359 ± 323 |
